Measured values: the supplement of paper PMC9112550, “Optimization of the antimicrobial peptide Bac7 by deep mutational scanning” (BMC Biology, 2022)

Test system: Escherichia coli TOP10
Assay: shrunken log2 fold change of peptide-encoding DNA abundance (4.5 h post-induction vs induction); higher = less antimicrobial activity (less host growth inhibition)
Details: time post-induction: 4.5 h; library: site-saturation at positions 5, 18, 19, 20
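Also: peptides expressed intracellularly from a pBAD plasmid library in pooled LB shake-flask culture, induced with 0.3% L-arabinose, DNA abundance read by NGS, three biological replicates, DESeq2 with apeglm shrinkage.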

Sequence | shrunken log2 fold change
RRIRARPPRLPRPRPRPNVLPRP | 0.00594
RRIRRRPPRLPRPRPRPFYDPRP | -0.193
RRIRGRPPRLPRPRPRPFVHPRP | 0.111
RRIRMRPPRLPRPRPRPPTEPRP | 0.413
RRIRNRPPRLPRPRPRPSQLPRP | 0.00155
RRIRVRPPRLPRPRPRPDSRPRP | 0.0857
RRIRYRPPRLPRPRPRPMCDPRP | -0.987
RRIRQRPPRLPRPRPRPNFIPRP | -0.402
RRIRWRPPRLPRPRPRPEDNPRP | 0.547
RRIRNRPPRLPRPRPRPFGMPRP | 0.0298
RRIRARPPRLPRPRPRPTFNPRP | 0.0685
RRIRARPPRLPRPRPRPHFDPRP | 0.22
RRIRPRPPRLPRPRPRPFQCPRP | -0.0376
RRIRLRPPRLPRPRPRPGKPPRP | -0.0724
RRIRIRPPRLPRPRPRPHLDPRP | 0.178
RRIRVRPPRLPRPRPRPMDCPRP | -0.0385
RRIRHRPPRLPRPRPRPFMEPRP | -1
RRIRVRPPRLPRPRPRPARDPRP | 0.355
RRIRNRPPRLPRPRPRPNCQPRP | -0.182
RRIRFRPPRLPRPRPRPDKNPRP | -0.413
RRIRTRPPRLPRPRPRPNDSPRP | -0.00242
RRIRNRPPRLPRPRPRPKDLPRP | -0.0125
RRIRGRPPRLPRPRPRPFINPRP | -0.165
RRIRFRPPRLPRPRPRPYSKPRP | -0.996
RRIRTRPPRLPRPRPRPVSFPRP | -0.114

Sequence | shrunken log2 fold change
RRIRSRPPRLPRPRPRPELSPRP | 0.963
RRIRCRPPRLPRPRPRPGCIPRP | -0.385
RRIRLRPPRLPRPRPRPFVQPRP | -0.284
RRIRTRPPRLPRPRPRPAKDPRP | -0.399
RRIRYRPPRLPRPRPRPALEPRP | -0.486
RRIRPRPPRLPRPRPRPAQNPRP | -0.105
RRIRCRPPRLPRPRPRPPPNPRP | 1.27
RRIRVRPPRLPRPRPRPWLIPRP | -0.277
RRIRGRPPRLPRPRPRPQCYPRP | -0.0337
RRIRWRPPRLPRPRPRPCRHPRP | 0.0955
RRIRPRPPRLPRPRPRPYWRPRP | -0.106
RRIRCRPPRLPRPRPRPTWLPRP | -0.227
RRIRNRPPRLPRPRPRPYANPRP | 0.0782
RRIRHRPPRLPRPRPRPCPIPRP | -0.0539
RRIRQRPPRLPRPRPRPGNDPRP | -0.299
RRIRVRPPRLPRPRPRPMKPPRP | -0.0376
RRIRLRPPRLPRPRPRPKKDPRP | 0.0575
RRIRGRPPRLPRPRPRPHHCPRP | -0.118
RRIRDRPPRLPRPRPRPGKCPRP | -0.105
RRIRHRPPRLPRPRPRPDFHPRP | -0.769
RRIRARPPRLPRPRPRPVYKPRP | -0.35
RRIRPRPPRLPRPRPRPAVDPRP | 0.249
RRIRRRPPRLPRPRPRPFCKPRP | -0.188
RRIRNRPPRLPRPRPRPAPMPRP | 0.237
RRIRQRPPRLPRPRPRPIRNPRP | -0.0231

Sequence | shrunken log2 fold change
RRIRPRPPRLPRPRPRPLCSPRP | -0.431
RRIRMRPPRLPRPRPRPYDQPRP | 0.102
RRIRLRPPRLPRPRPRPEYDPRP | 0.0855
RRIRERPPRLPRPRPRPQQRPRP | 0.0285
RRIRYRPPRLPRPRPRPNQRPRP | -0.181
RRIRCRPPRLPRPRPRPIIMPRP | -0.888
RRIRFRPPRLPRPRPRPFAQPRP | -0.263
RRIRERPPRLPRPRPRPNNAPRP | -0.162
RRIRTRPPRLPRPRPRPEKSPRP | 0.288
RRIRSRPPRLPRPRPRPEDCPRP | 0.0867
RRIRSRPPRLPRPRPRPAQLPRP | -0.142
RRIRVRPPRLPRPRPRPHAMPRP | -0.18
RRIRNRPPRLPRPRPRPTYEPRP | -0.172
RRIRSRPPRLPRPRPRPAVMPRP | 0.139
RRIRRRPPRLPRPRPRPNSDPRP | -0.17
RRIRRRPPRLPRPRPRPPVFPRP | 0.55
RRIRERPPRLPRPRPRPHKRPRP | 3.62
RRIRCRPPRLPRPRPRPRGSPRP | 0.511
RRIRERPPRLPRPRPRPLFHPRP | -0.367
RRIRLRPPRLPRPRPRPSTRPRP | 0.174
RRIRQRPPRLPRPRPRPGWSPRP | 0.119
RRIRRRPPRLPRPRPRPSNHPRP | -0.396
RRIRVRPPRLPRPRPRPGITPRP | -0.238
RRIRCRPPRLPRPRPRPTAIPRP | -0.273
RRIRPRPPRLPRPRPRPCEIPRP | 0.0471

Sequence | shrunken log2 fold change
RRIRARPPRLPRPRPRPYGDPRP | -0.0672
RRIRSRPPRLPRPRPRPYILPRP | -0.69
RRIRRRPPRLPRPRPRPDKPPRP | 0.583
RRIRRRPPRLPRPRPRPPAWPRP | 0.919
RRIRGRPPRLPRPRPRPEEYPRP | 0.0595
RRIRQRPPRLPRPRPRPFERPRP | 0.0412
RRIRDRPPRLPRPRPRPQTQPRP | 0.372
RRIRQRPPRLPRPRPRPLSLPRP | -0.0321
RRIRIRPPRLPRPRPRPYGGPRP | 0.00177
RRIRRRPPRLPRPRPRPSTTPRP | 0.00373
RRIRARPPRLPRPRPRPDRWPRP | 0.685
RRIRNRPPRLPRPRPRPTSIPRP | -0.531
RRIRLRPPRLPRPRPRPHILPRP | -0.0127
RRIRTRPPRLPRPRPRPHYCPRP | -0.418
RRIRCRPPRLPRPRPRPDDFPRP | 0.0333
RRIRNRPPRLPRPRPRPKCFPRP | -0.192
RRIRDRPPRLPRPRPRPAWDPRP | 0.4
RRIRDRPPRLPRPRPRPRQHPRP | 0.153
RRIRPRPPRLPRPRPRPVIRPRP | -0.074
RRIRDRPPRLPRPRPRPYIDPRP | -0.0251
RRIRRRPPRLPRPRPRPEMPPRP | 0.207
RRIRQRPPRLPRPRPRPFLHPRP | 0.0118
RRIRGRPPRLPRPRPRPNCAPRP | 0.811
RRIRVRPPRLPRPRPRPVLFPRP | 0.00022
RRIRSRPPRLPRPRPRPIGQPRP | 0.0342

Sequence | shrunken log2 fold change
RRIRGRPPRLPRPRPRPWYIPRP | -0.291
RRIRTRPPRLPRPRPRPAWTPRP | 0.101
RRIRGRPPRLPRPRPRPVNHPRP | 0.301
RRIRGRPPRLPRPRPRPWDLPRP | -0.0503
RRIRPRPPRLPRPRPRPWDQPRP | -0.0786
RRIRIRPPRLPRPRPRPAHFPRP | 0.0262
RRIRWRPPRLPRPRPRPHWWPRP | 0.629
RRIRCRPPRLPRPRPRPVMEPRP | -0.0475
RRIRIRPPRLPRPRPRPCHFPRP | -0.131
RRIRDRPPRLPRPRPRPFNNPRP | -0.226
RRIRQRPPRLPRPRPRPWQGPRP | -0.137
RRIRNRPPRLPRPRPRPPPCPRP | 0.756
RRIRNRPPRLPRPRPRPNTYPRP | -0.971
RRIRYRPPRLPRPRPRPETIPRP | -0.495
RRIRSRPPRLPRPRPRPRGMPRP | 0.164
RRIRYRPPRLPRPRPRPFMQPRP | -0.403
RRIRGRPPRLPRPRPRPFENPRP | 0.0511
RRIRHRPPRLPRPRPRPDVCPRP | -0.258
RRIRIRPPRLPRPRPRPHGQPRP | -0.0468
RRIRQRPPRLPRPRPRPYVIPRP | 0.0316
RRIRRRPPRLPRPRPRPSITPRP | -0.225
RRIRARPPRLPRPRPRPTGTPRP | 0.363
RRIRLRPPRLPRPRPRPMGNPRP | -0.147
RRIRARPPRLPRPRPRPFDDPRP | -0.0122
RRIRFRPPRLPRPRPRPRPWPRP | 0.505

Sequence | shrunken log2 fold change
RRIRVRPPRLPRPRPRPDVKPRP | -0.0375
RRIRYRPPRLPRPRPRPTPCPRP | -0.122
RRIRIRPPRLPRPRPRPYRYPRP | -0.127
RRIRDRPPRLPRPRPRPCEPPRP | 0.194
RRIRQRPPRLPRPRPRPNKCPRP | -0.145
RRIRRRPPRLPRPRPRPVRAPRP | 0.935
RRIRQRPPRLPRPRPRPTDQPRP | 0.411
RRIRKRPPRLPRPRPRPPSKPRP | 0.541
RRIRARPPRLPRPRPRPGQGPRP | 0.204
RRIRYRPPRLPRPRPRPEVPPRP | -0.0684
RRIRYRPPRLPRPRPRPGHWPRP | -0.135
RRIRRRPPRLPRPRPRPQHHPRP | -0.0809
RRIRQRPPRLPRPRPRPNVDPRP | -0.0229
RRIRCRPPRLPRPRPRPYYNPRP | -1.2
RRIRRRPPRLPRPRPRPANHPRP | 0.097
RRIRCRPPRLPRPRPRPQGVPRP | 0.0642
RRIRKRPPRLPRPRPRPTYVPRP | -0.201
RRIRYRPPRLPRPRPRPGWFPRP | -0.112
RRIRKRPPRLPRPRPRPSQRPRP | 0.231
RRIRIRPPRLPRPRPRPEMPPRP | 0.0112
RRIRGRPPRLPRPRPRPPQKPRP | 1.35
RRIRNRPPRLPRPRPRPLGNPRP | -0.248
RRIRSRPPRLPRPRPRPAPFPRP | 0.201
RRIRHRPPRLPRPRPRPAGQPRP | -0.00146
RRIRVRPPRLPRPRPRPEEYPRP | -0.411
